Results reported in patent US20160237095A1 (KADMON, published 2016).
Numbering of substitutions follows the chain as printed. Each block holds one binder with its values, some of them ahead of it.

Legend:
murine VEGFR2 [1] = molecular target: T1, murine VEGFR2 (murine, UniProt P35918 20-762, limits assumed); experiment: blocking ELISA, mVEGF binding to mVEGFR2 (right panel) [continued) B]
T1 construct: Antigen in the ELISA and Biacore assays; also called mVEGFR2; mouse VEGFR2

murine VEGFR2 [2] = molecular target: T1, murine VEGFR2; experiment: ELISA, binding to mVEGFR2 (right panel); detected with a different secondary antibody
rat VEGFR2 = molecular target: T2, rat VEGFR2 (rat, UniProt O08775 20-760, limits assumed); experiment: Biacore
T2 construct: Antigen in the Biacore assay

murine VEGFR2 [3] = molecular target: T1, murine VEGFR2; experiment: Biacore
human VEGFR2 [4] = molecular target: T3, human VEGFR2 (human, UniProt P35968 20-764, limits assumed); experiment: Biacore
T3 construct: Antigen in the ELISA and Biacore assays; also called hVEGFR2; KDR

human VEGFR2 [5] = molecular target: T3, human VEGFR2; experiment: ELISA, binding to hVEGFR2 (left panel)
murine VEGFR2 [6] = molecular target: T1, murine VEGFR2; experiment: ELISA, binding to mVEGFR2 (right panel)
[7] = molecular target: T4, human VEGFR2 expressed on HUVEC and on KDR-PAE cells (human, UniProt P35968 20-1356); experiment: cell binding (MFI), KDR-PAE cells
T4 construct: whole, on cells; also called hVEGFR2; hVEGR2

human VEGFR2 [8] = molecular target: T3, human VEGFR2; experiment: blocking ELISA, hVEGF binding to hVEGFR2 (left panel) [continued) B]

T3 sequence (P35968 20-764 limits assumed): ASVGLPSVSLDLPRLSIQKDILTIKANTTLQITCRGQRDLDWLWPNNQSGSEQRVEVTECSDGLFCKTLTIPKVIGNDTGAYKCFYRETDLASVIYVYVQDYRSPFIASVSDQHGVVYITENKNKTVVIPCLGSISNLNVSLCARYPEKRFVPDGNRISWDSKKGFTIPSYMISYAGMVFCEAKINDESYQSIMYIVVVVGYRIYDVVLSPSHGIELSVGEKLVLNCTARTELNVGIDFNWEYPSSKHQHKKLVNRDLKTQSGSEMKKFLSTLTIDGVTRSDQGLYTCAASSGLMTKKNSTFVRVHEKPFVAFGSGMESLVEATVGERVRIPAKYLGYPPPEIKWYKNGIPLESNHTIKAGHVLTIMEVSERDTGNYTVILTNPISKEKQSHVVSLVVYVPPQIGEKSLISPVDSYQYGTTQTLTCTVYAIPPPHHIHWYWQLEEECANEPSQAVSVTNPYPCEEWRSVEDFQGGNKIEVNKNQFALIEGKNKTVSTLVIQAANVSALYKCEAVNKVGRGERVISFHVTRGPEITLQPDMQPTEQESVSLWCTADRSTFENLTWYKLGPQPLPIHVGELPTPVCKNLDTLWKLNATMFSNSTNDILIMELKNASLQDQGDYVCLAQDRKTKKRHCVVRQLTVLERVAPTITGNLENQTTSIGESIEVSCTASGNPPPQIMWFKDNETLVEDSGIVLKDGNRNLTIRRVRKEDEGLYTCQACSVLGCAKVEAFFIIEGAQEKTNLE
T2 sequence (O08775 20-760 limits assumed): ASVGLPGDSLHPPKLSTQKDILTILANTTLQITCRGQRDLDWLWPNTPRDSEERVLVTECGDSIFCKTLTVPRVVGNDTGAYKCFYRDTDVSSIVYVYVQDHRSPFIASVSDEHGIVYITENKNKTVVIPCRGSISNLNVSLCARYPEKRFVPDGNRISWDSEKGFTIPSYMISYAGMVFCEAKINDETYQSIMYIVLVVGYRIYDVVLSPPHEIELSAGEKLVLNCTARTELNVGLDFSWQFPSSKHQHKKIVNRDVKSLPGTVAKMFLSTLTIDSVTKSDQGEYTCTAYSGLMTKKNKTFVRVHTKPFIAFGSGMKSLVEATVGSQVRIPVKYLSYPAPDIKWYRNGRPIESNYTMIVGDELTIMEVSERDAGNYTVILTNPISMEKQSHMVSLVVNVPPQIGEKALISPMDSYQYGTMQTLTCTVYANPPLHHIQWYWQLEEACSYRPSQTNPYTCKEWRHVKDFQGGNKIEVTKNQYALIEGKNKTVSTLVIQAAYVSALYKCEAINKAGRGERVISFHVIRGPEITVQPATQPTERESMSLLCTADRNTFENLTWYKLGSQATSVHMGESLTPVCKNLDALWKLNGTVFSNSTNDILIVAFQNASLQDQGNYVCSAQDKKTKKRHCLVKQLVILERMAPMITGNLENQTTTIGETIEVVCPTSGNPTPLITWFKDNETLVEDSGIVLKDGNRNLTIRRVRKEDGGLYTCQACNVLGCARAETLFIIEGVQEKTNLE
T1 sequence (P35918 20-762 limits assumed): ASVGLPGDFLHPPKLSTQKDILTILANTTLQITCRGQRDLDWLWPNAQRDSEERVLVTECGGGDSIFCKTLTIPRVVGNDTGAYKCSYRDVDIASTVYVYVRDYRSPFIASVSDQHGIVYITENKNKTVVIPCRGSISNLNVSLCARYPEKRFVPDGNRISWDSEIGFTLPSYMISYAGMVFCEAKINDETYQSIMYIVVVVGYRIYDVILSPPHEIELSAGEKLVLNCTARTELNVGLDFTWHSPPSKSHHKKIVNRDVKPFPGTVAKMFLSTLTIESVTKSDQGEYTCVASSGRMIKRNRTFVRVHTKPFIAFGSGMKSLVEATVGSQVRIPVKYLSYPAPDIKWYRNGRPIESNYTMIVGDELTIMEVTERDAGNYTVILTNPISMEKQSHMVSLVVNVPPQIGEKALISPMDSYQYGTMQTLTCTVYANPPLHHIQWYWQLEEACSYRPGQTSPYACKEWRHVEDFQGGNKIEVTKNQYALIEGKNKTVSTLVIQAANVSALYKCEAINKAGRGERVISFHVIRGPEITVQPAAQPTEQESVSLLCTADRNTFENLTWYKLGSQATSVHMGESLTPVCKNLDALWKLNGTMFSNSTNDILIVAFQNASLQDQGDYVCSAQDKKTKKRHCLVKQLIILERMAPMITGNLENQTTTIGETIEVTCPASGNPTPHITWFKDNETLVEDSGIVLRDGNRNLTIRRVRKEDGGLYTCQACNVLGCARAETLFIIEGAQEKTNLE
T4 sequence (P35968 20-1356): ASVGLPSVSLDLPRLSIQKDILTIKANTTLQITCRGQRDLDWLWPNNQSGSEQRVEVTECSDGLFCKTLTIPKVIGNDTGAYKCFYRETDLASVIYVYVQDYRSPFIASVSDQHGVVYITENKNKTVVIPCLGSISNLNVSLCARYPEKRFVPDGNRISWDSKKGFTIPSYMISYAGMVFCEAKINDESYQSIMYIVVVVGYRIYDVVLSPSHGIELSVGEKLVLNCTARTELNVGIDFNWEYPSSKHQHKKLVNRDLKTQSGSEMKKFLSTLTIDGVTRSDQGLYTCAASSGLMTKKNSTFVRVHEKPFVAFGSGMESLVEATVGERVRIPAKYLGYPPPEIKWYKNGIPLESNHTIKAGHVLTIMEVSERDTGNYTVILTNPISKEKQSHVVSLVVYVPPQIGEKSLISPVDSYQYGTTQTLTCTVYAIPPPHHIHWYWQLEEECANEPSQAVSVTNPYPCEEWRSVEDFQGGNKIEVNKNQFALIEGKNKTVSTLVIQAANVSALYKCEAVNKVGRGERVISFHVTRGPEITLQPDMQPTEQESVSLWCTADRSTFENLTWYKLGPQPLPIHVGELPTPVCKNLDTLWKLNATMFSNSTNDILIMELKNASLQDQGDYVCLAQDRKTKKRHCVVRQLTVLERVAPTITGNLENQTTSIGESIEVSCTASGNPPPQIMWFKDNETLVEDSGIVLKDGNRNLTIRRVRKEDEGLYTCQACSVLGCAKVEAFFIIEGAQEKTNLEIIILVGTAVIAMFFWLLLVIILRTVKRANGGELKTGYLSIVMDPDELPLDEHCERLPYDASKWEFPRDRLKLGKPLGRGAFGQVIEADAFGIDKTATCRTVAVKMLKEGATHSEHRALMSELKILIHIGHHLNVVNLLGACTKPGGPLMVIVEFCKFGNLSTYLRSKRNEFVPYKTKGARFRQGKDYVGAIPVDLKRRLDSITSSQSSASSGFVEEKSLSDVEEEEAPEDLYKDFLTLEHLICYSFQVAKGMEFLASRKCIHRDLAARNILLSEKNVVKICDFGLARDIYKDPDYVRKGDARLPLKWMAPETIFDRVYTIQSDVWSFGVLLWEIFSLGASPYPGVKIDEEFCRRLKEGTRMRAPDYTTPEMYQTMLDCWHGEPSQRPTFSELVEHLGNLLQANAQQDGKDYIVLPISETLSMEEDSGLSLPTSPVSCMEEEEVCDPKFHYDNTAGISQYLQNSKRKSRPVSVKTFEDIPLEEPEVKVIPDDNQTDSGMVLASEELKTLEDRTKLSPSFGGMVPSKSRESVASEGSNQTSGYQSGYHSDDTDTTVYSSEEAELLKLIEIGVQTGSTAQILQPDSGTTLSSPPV

IC50 (read off the curve) (murine VEGFR2 [1]): ~0.6 nM
EC50 (read off the curve) (murine VEGFR2 [2]): ~0.3 nM
B1: DC 101 (a murine monoclonal Ab that binds to murine VEGFR2) (antibody, V domains shown)
VH: EVQLVETGGGLVQPGNSLKLSCATSGFIFSTTWMNWIRQTPGKRLEWLAQIEDKSNNYFISYSESVKGRFTISRDDSKSSVYLQMNNLKEEDTAIYYCSWKYRSNYYFDYWGQGVMVTVSS
VL: DIVLTQSPALAVSLEQRATISCKTSQNVDYYGISYLHWYQQKPGQQPKLLIYEGSNLASGIPARFSGSGSGTDFTLTIDPVEADDIVTYYCQQSKDYPYTFGAGTKLELK

Kd (rat VEGFR2): 43.1 nM
Kd (murine VEGFR2 [3]): 79.2 nM
Kd (human VEGFR2 [4]): 7.65 nM
B2: Mab 149 (antibody, V domains shown)
VH: EVQLLESGGGLVQPGGSLRLSCAASGFTFSWYVMGWVRQAPGKGLEWVSSIYPSGGATNYADSVKGRFTISRDNSKNTLYLQMNSLRAEDTAVYYCARGNYLDYWGQGTLVTVSS
VL: DIQMTQSPGTLSLSPGEGATLSCRASQSVSSNYFGWYQQKPGQAPRLLIYGASSRATGIPDRFSGSGSGTDFTLTISRLEPEDSAVYYCQQFDSSPLSFGGGTKVEIKR

EC50 (read off the curve) (human VEGFR2 [5]): ~0.1 nM
EC50 (read off the curve) (murine VEGFR2 [6]): ~0.1 nM
IC50 (read off the curve) (murine VEGFR2 [1]): ~0.5 nM
EC50 (read off the curve) [7]: ~0.3 nM
Kd (rat VEGFR2): 13.9 nM
Kd (murine VEGFR2 [3]): 29.4 nM
Kd (human VEGFR2 [4]): 2.51 nM
IC50 (read off the curve) (human VEGFR2 [8]): ~0.4 nM
B3: Mab 147 (antibody, V domains shown)
VH: B2 VH with S54Q, N59S, L102F
VL: B2 VL with S95L, S98T

Kd (rat VEGFR2): 31.2 nM
B4: Mab 138 (antibody, V domains shown)
VH: B2 VH with L102F
VL: B2 VL with E17D, G18R, F34L, G35A, L47V, S54T, S64T
